# Test results published in patent US20120141463A1.
# Molecular target: membrane anchored IgE on transfected 293 cells (human) (UniProt P01854)
# Assay: cell-based or functional assay
# Sequence of membrane anchored IgE on transfected 293 cells (human) (P01854 whole entry): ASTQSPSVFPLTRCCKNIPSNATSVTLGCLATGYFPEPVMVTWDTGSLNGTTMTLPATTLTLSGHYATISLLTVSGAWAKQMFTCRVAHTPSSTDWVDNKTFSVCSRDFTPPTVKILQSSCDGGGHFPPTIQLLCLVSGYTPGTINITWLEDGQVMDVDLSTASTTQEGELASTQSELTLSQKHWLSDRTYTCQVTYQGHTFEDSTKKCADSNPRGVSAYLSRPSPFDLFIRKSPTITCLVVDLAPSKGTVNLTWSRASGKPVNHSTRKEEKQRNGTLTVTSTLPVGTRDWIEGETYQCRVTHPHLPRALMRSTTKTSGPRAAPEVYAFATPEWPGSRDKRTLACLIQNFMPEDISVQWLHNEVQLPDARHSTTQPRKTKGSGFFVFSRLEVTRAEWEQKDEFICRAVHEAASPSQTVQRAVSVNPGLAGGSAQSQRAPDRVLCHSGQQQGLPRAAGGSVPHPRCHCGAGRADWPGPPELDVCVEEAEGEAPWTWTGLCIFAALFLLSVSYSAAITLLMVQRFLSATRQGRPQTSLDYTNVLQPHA
binder,measurement,value
"D5 antibody (antibody, V domains shown) VH: EVQLLESGGGLVQPGGSLRLSCAASGFTFSKYHMVWVRQAPGKGLEWVSSIGPSGGNTYYADSVKGRFTISRDNSKNTLYLQMNSLRAEDTATYYCARALGATFDYWGQGTLVTVSS VL: DIQMTQSPLSLPVTLGQPASISCKSSQSLVYRDGITYLSWFQQRPGQSPRRLIYKVSNRDSGVPDRFSGSGSDSNFTLKISSVEAEDVGLYFCMQGSHWPFTFGPGTKVDIKR","ADCC activity (% cytotoxicity, LDH release, PBMC effectors)",< 70%
